Data published in patent US20220017616A1 (Amgen, published 2022).
Positions count from the first letter of the chain named.

T1: human TIGIT (human, UniProt Q495A1 22-244)
T1 construct: Cell-surface form; also called huTIGIT
T1 sequence: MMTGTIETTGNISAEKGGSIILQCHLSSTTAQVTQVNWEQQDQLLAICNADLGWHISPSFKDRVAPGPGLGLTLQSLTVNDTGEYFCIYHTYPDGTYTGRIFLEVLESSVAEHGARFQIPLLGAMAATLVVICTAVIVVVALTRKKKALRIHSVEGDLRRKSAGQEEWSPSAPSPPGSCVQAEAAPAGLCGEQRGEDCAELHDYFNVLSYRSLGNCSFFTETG

T2: huTIGIT (PL44403) (human, UniProt Q495A1 22-141)
T2 construct: Soluble protein; also called Human TIGIT (Octet analyte, mono-Fc tag)
T2 sequence: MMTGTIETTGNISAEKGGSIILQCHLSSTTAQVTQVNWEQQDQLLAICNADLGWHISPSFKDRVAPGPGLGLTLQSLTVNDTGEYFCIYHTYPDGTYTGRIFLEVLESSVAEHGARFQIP

T3: biotinylated human CD112R-Fc (human, UniProt Q6DKI7 41-171, limits assumed, biotinylated)
T3 construct: also called CD112R receptor (on streptavidin beads)
T3 sequence: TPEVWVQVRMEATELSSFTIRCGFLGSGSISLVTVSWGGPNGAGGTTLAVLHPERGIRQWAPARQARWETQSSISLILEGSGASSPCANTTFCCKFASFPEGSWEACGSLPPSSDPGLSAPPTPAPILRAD

T4: cynomolgus monkey CD112R (cynomolgus monkey)
T4 construct: also called cyno CD112R
T4 chain: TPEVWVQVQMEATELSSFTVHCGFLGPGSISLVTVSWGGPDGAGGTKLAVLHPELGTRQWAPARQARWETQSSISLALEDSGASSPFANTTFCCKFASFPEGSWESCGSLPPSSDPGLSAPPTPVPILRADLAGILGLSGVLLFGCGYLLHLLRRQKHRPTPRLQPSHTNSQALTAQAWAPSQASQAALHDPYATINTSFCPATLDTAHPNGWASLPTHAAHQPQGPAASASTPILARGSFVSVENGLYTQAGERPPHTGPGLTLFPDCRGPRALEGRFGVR

T5: human CD112R (human, UniProt Q6DKI7 41-326)
T5 construct: also called huCD112R; PVRIG
T5 sequence: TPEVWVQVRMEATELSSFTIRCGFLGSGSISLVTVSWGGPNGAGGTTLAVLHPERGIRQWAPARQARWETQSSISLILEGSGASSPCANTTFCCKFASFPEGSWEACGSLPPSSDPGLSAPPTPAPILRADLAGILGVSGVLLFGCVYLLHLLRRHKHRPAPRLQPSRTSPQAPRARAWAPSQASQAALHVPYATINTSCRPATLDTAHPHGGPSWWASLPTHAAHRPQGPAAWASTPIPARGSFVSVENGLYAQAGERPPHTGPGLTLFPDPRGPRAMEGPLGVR

B1: 55G7 (antibody, V domains shown)
VH: QVQLVESGGGVVQPGRSLRLSCAASGFTFSSYGMHWVRQAPGKGLEWVALIWFDESNIYYADSVKGRFTISRDNSKNTLYLQMNSLRAEDTAVYFCARGYDLLTGYYNFDFWGLGTLVTVSA
VL: QAGLTQPPSVSKGLRQTATLTCTGNTNNVGNRGAAWLQQHQGHPPKLLSYRNNNRPSGISERLSASRSGNTASLTITGLQPEDEADYYCSAWDSSLSAWVFGGGTKLTVLG
notes: Fully human XenoMouse antibody, tested as hybridoma supernatant or purified mAb
B2: 4G10 (antibody, V domains shown)
VH: QVQLQESGPGLVNPSQTLSLTCIVSGGSIRSGDYYWSWIRQHPGKGLEWIGYIYYSGGTYYNPSLKSRVIISVDTTKNQFSLKLSSMTAADTAVYYCARGSIAARSGYFYFSGLDVWGQGPTVTVSS
VL: EIVLTQTPLSLSVTPGQPASISCKSSQSLLPSDGKTYLSWYLQKPGLPPQVLIYEVSNRFSGVPDRFSGSGSGTDFTLKISRVEAEDVGVYYCMQSIQLPLTFGGGTKVEIKR
notes: as for B1
B3: 58A7 (antibody, V domains shown)
VH: QVQLQESGPGLVKPSQTLSLTCTVSGGSISSGGYYWNWIRQHPGKGLEWIGYIYYSGSTFYNPSLKSRVIISVDTSKNQFSLKLSSVTAADTAVYYCARAPRYNWNYGWFDPWGQGTLVTVSS
VL: EIVLTQSPGTLSLSPGERATLSCRASQNVSSTYLAWYQQKPGQAPRLLFYGASSRATGIPDRFSRSGSGTDFTLTISRLEPEDFAVYYCQQYDVSPWTFGQGTKVEIK
notes: Tested as hybridoma supernatant or purified mAb; also called 48B7
B4: 11E4 (antibody, V domains shown)
VH: QVQLQESGPGLVKPSQTLSLTCTVSGGSISSGGYYWSWIRQHPGKGLEWIGYIYYSGSTSYNPSLKSRVTISVDTSKNQFSLKLSSVTAADTAVYYCARDLDYDILTGYPRWDYGMDVWGQGTTVTVSS
VL: EIVMTQSPATLSVSPGERATLSCRASQSVSNNLAWYQQKPGQAPRLLIYSESTRATGIPDRFSGSGSGTEFTLTISSLQSEDFAVYYCQQHNNWPRTFGQGTKVEIKR
notes: Fully human XenoMouse antibody, tested as hybridoma supernatant
B5: 1E1 (antibody, V domains shown)
VH: QVQLVQSGAEVKKPGASVKVSCQASGYTFTDYYIYWVRQAPGQGLEWMGWINPNSGGTNYAQKFQGRVTMTRDTSISTAYIELSRLRSDDTAVYYCAREDNFNGMDVWGQGTTVTVSS
VL: DIQMTQSPSSLSASVGDRVTITCRASQGIRNDLGWYQQKPGKAPKRLIYAASSLQSGVPSRFSGSGSGTEFTLTISSLQPEDFATYYCLQLNSYPLTFGGGTKVEIKR
notes: Fully human XenoMouse antibody, tested as hybridoma supernatant or purified mAb; also called 18C10
B6: 29E10 (antibody, V domains shown)
VH: EVQLVESGGGLVQPGGSLRLSCAASGFTFRNYDMHWVRQVPGKGLEWVSDIGNSGETYYLGSVKGRFTISRENAKNSLYLQMNSLRAGDTAVYYCVREEFGYGMDVWGQGTTVTVSS
VL: B5 VL with L91H
notes: as for B4
B7: 24F1 (antibody, V domains shown)
VH: EVQLVESGGGLVQPGGSLRLSCAASGFTFSRDDMHWVRQATGKGLEWVAGIDNAGDTYYPGSVKGRFTISRENAKNSLYLQMNSLRAGDTAIYYCAREGQWPYGMDVWGQGTTVTVSS
VL: B5 VL with A50S, P59S, L91S
notes: as for B4
B8: 27G12 (antibody, V domains shown)
VH: QVQLVQSGGEVKKPGASVKVSCKASGFTFTSYDINWVRQATGQGLEWMGWMNHYSGDSDYAQKLQGRVIITRNTSITTAYMELSSLRSEDTAVYYCGRERFPFGMDVWGQGTTVTVSS
VL: DIQMTHSPSSLSASIGDRVTITCRASQGIRNELGWYQKKPGKAPKRLIYSASSLQSGVPSRFSGSGSGTEFTLTISSLQPEDFATYYCLQHNTYPLTFGGGTKVEIK
notes: as for B4
B9: 66H9 (antibody, V domains shown)
VH: QVQLQESGPGLVKPSQTLSLTCTVSGGSISSVYFYWNWIRQHPGKGLEWIGYIYYSGGTYYNPSLRSRVTISVDTSKNQFSLKLNSVTAADTAVYYCARGSIAAGGGYFYYNDMDVWGQGTTVTVSS
VL: EIVLTQSPDFQSVTPKEKVAITCRASQSIGSSLHWYQQKPDQSPKPLIKYVSQSFSGVPSRFSGSGSGTDFTLTINSLEAEDAATYYCHQSSSLPLTFGGGTKVEIKR
notes: as for B1
B10: 39D2 (antibody, V domains shown)
VH: QVQLVQSGAEVKKPGASVKVSCKASGYTFTGYYIHWVRQAPGQGLEWMGWISPTSGATGYAQNFQGRVTMTRDTSITTAYMELSRLRSDDTAVYYCARDSNSVLYYYGMDVWGQGTTVTVSS
VL: DIEMTQAPSSLSASVGDRVTITCRASQTIRRYLNWYQQKPGKAPKLLIYAASSLQNGVPSRFSGSVSGTDFTLTISSLQPEDFATYYCQQSYSTPLTFGGGTKVGIRR
notes: as for B1
B11: 31B3 (antibody, V domains shown)
VH: QVQLVESGGGVVQPGRSLRLSCAASGFTFSYYGMHWVRQAPGKGLEWVALISYDGNNKYYVDSVRGRFTISRDNSKNTLSLQMNSLRAEDTAVYYCAREIFGESYYYGMDVWGQGTTVTVSS
VL: EIVMTQSPATLSVSPGERATLSCRASQSISRNLAWYQQKPGQAPRLLIYGASIRATVIPARFSGSGSGTEFTLTISSLQSEDFAIYYCQQYNNWMCSFGQGTKLEIK
notes: as for B4

Experiments:
human TIGIT [1] = molecular target: T1, human TIGIT; assay: flow cytometry on CHO-S cells expressing human TIGIT, competitor CD112-Fc-Alexa 647, at 1 ug/mL
Description: (§1) TIGIT-binding hybridoma supernatants were then tested for their ability to block TIGIT from binding ligand. […] The 7-AAD cell viability stain was then added and the cells incubated for a further 15 minutes at 4° C., washed twice and resuspended in FACS buffer. Samples were analyzed using a BD Accuri™ Flow Cytometer and an Intellicyt HyperCyt autoSampler.

cynomolgus TIGIT = molecular target: T6, cynomolgus TIGIT (cynomolgus monkey); assay: flow cytometry, 1 µg/mL on activated primary cyno PBMCs, fold over isotype control
T6 construct: Cell-surface form; also called cyno TIGIT
Description: (§2) The binding of hybridoma supernatants to TIGIT expressed by primary human and cynomolgus monkey cells were tested by flow cytometry. For human primary cell binding assay, purified human T cells (Biological Specialty Corp.) were thawed and suspended at a concentration of 2.5×10⁶ cells/mL. […] After 72 hours, cells were removed, washed and suspended at a concentration of 0.5×10⁶ cells/mL with 10 ng/mL of IL-2 (Pepro Tech). Cells were then incubated for another 48 to 72 hours at 37° C./5% CO₂. For cynomolgus primary cell binding assay, cynomolgus PBMCs (SNBL) were thawed and suspended in a concentration between 4×10⁶ and 5×10⁶ cells/mL. […] After 72 hours, cells were removed, washed and suspended at a concentration of 0.5×10E6 cells/mL with 20 ng/mL of IL-2 (Pepro Tech). Cells were then incubated for another 48 to 72 hours at 37° C./5% CO₂. After the final incubation, cells were prepared for flow cytometry by incubation with normalized hybridoma supernatants, positive control antibodies and isotype control antibodies at 1 μg/mL final concentration. […] Cells were then run on BD FACSCanto II flow cytometer to detect anti-TIGIT antibody binding.

human TIGIT [2] = molecular target: T1, human TIGIT; assay: flow cytometry on CHO-S cells expressing human TIGIT, competitor huCD155-Fc-Alexa 647, at 1.7 µg/mL
Description: as §1

cynoTIGIT (PL40461) = molecular target: T7, cynoTIGIT (PL40461) (cynomolgus monkey); assay: Octet, antibody on anti-huIgG Fc capture tips, cynoTIGIT as analyte
T7 construct: Soluble protein; also called Cyno TIGIT (Octet analyte)
Description: (§3) In the case of cynoTIGIT, association was monitored for 5 min and dissociation for 5 min. […] The limit of detection of dissociation is 4e-5 based on a minimum of 5% dissociation over 20 minutes.

human TIGIT [3] = molecular target: T1, human TIGIT; assay: flow cytometry, 1 µg/mL on activated primary human T cells, fold over isotype control
Description: as §2

huTIGIT (PL44403) = molecular target: T2, huTIGIT (PL44403); assay: Octet, antibody on anti-huIgG Fc capture tips, huTIGIT as analyte
Description: as §3

human TIGIT [4] = molecular target: T1, human TIGIT; assay: cell-based or functional assay
[5] = molecular target: T3, biotinylated human CD112R-Fc; assay: flow cytometry on beads, supernatant at 5 µg/mL, competitor Alexa 647 CD112-huFc at 370 ng/mL
Description: Biotinylated human CD112R-Fc was captured on Streptavidin polystyrene beads (Spherotech, Cat. No. SVP-60-5) in FACS buffer and incubated for 30 minutes at room temperature. Beads were washed twice with FACS buffer, centrifuged to pellet the beads, supernatant removed and resuspended in FACS buffer to remove unbound protein. Biotinylated human CD112R coated beads were added to a 96-well plate. Hybridoma supernatant samples were added such that 5 μg/mL final, beads were resuspended and incubated for 1 hour at room temperature. […] Beads were washed once with FACS buffer, centrifuged to pellet the beads, supernatant removed and resuspended in FACS buffer to remove unbound ligand. Samples were then resuspended in FACS buffer and read on BD Accuri™ Flow Cytometer with an Intellicyt HyperCyt autosampler.

cynomolgus monkey CD112R = molecular target: T4, cynomolgus monkey CD112R; assay: flow cytometry, titration on activated cyno PBMCs
Description: (§4) Briefly, cultured human T cells and cyno PBMCs were incubated with lead panel starting at 3 μg/mL for human or 5 μg/mL for cyno and titrated 1 in 3 for the lowest concentration of 0.001 μg/mL for human and 0.002 μg/mL for cyno. […] For analysis, FCS Express was used to obtain Geo Means and Screener was used to determine fold over Isotype control, titration curves and EC50 values.

human CD112R = molecular target: T5, human CD112R; assay: flow cytometry, titration on activated primary human T cells
Description: as §4

human TIGIT [6] = molecular target: T1, human TIGIT; assay: cell-based or functional assay; remark: listed apart in the source

T7 sequence (chain, as listed by the source limits assumed): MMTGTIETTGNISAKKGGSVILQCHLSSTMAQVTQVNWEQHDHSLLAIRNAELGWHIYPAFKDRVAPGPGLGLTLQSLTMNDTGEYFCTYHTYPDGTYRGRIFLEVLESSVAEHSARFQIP
T6 sequence (chain, as listed by the source): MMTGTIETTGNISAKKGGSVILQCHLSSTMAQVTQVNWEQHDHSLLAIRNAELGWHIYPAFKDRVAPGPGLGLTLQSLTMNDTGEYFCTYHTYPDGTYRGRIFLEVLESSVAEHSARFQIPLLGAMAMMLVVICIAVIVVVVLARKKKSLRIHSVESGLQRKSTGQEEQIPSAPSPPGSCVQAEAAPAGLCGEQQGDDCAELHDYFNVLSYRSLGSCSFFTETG

Binder | % inhibition (human TIGIT [1]) [%] | FACS Geomean Fold (cynomolgus TIGIT) [fold] | % inhibition (human TIGIT [2]) [%] | Kd (cynoTIGIT (PL40461)) [nM] | FACS Geomean Fold (human TIGIT [3]) [fold] | Kd (huTIGIT (PL44403)) [nM] | Potency [nM], Jurkat human TIGIT/IL-2-luciferase RGA, n = 1 (human TIGIT [4]) [nM] | Potency [nM], Jurkat human TIGIT/IL-2-luciferase RGA, n = 2 (human TIGIT [4]) [nM] | % of CD112 ligand prevented from binding [5] [%] | EC50 (cynomolgus monkey CD112R) [µg/mL] | EC50 (human CD112R) [µg/mL] | activity in the primary CD8 memory T-cell assay (IFN-γ release, CHO-K1-CD155+ cells) (human TIGIT [6]) [pM]
B1 | 86 | 12.3 | 99 | 17 | 4.5 | < 0.1 | 4.4 | 14.4 | – | – | – | –
B2 | 91 | – | 100 | – | 13.5 | < 0.2 | 6.7 | 15 | – | – | – | –
B3 | 88 | 7.2 | 99 | 38 | 4.5 | < 0.1 | 7.9 | 2.9 | – | – | – | –
B4 | – | – | – | – | – | – | – | – | ≥ 90 | – | – | –
B5 | – | – | – | – | – | – | – | – | ≥ 90 | 0.0087 | 0.02 | –
B6 | – | – | – | – | – | – | – | – | ≥ 90 | 0.0322 | 0.033 | –
B7 | – | – | – | – | – | – | – | – | ≥ 90 | 0.0334 | 0.034 | –
B8 | – | – | – | – | – | – | – | – | ≥ 90 | 0.174 | 0.089 | –
B9 | 85 | 4 | 98 | 18 | 4.1 | < 0.1 | 3.4 | 5.8 | – | – | – | –
B10 | 100 | – | 100 | – | 13.7 | < 0.1 | 2 | 2.8 | – | – | – | 380
B11 | – | – | – | – | – | – | – | – | ≥ 90 | 0.898 | 0.127 | –
